From publication PMC10134273 (Cancer Medicine, 2023)
Several values for one entry are separate records, joined by “and”; a condition that tells them apart may be missing. Equal entries are not always repeated. Where two headings read alike, the source gives them in different places.

Method: Secondary endpoints included PK parameters (e.g., maximum observed concentration [C max] and area under the concentration‐time curve [AUC]). Secondary endpoints included objective response rate (ORR), disease control rate (DCR), and duration of response (DOR) as assessed by investigator per RECIST v1.1. Tumor responses were assessed according to RECIST v1.1; computerized tomography scanning or magnetic resonance imaging was performed every 6 weeks in the first 48 weeks, and every 12 weeks thereafter. Secondary endpoints also included safety and tolerability (adverse events [AEs] as defined by the National Cancer Institute‐Common Terminology Criteria for Adverse Events CTCAE v5.0) and exploratory biomarkers (total bile acids, 7‐α‐hydroxy‐4‐cholesten‐3‐one [C4] and circulating FGF19). Safety follow‐up visit was performed within 30 days (±5 days) and 90 days (±7 days) after the last dose of the study treatment.
All patients who received at least one dose of the study treatment in the Phase 1 part of the study were included in the safety and efficacy analyses. Dose escalation and MTD assessment were primarily based on DLTs which occurred within the 28‐day observation period. Descriptive statistics were used for demographics, safety, and efficacy data. The number of patients who experienced DLTs (within and outside of the 28‐day DLT assessment period) was tabulated for each dose level. The sample size of patients required for dose escalation were determined based on the ‘3+3’ design and DLTs observed as the trial progressed.

[1] = EVER4010001 40 mg BID group (N=3)
[2] = EVER4010001 60 mg BID group (N=3)
[3] = EVER4010001 80 mg BID group (N=6)
[4] = EVER4010001 100 mg BID group (N=7)

pembrolizumab: humanized monoclonal immunoglobulin G4 kappa anti-PD-1 antibody [reference compound]
SAEs related to EVER4010001 or pembrolizumab (2 patients with SAEs (40 and 60 mg)): none
Any pembrolizumab related TEAEs (Any Grade, N=19): 18 (94.7%) n (%) and 18 (94.7) n (%)
pembrolizumab related TEAEs: Abdominal pain (Any Grade, N=19): 2 (10.5) n (%)
pembrolizumab related TEAEs: Anemia (Any Grade, N=19): 4 (21.1) n (%)
pembrolizumab related TEAEs: Aspartate aminotransferase increase (Any Grade, N=19): 10 [52.6%] n (%) and 10 (52.6) n (%)
pembrolizumab related TEAEs: Blood alkaline phosphatase increased (Any Grade, N=19): 4 (21.1) n (%)
pembrolizumab related TEAEs: Blood and lymphatic system disorders (Any Grade, N=19): 4 (21.1) n (%)
pembrolizumab related TEAEs: Blood bilirubin increased (Any Grade, N=19): 4 (21.1) n (%)
pembrolizumab related TEAEs: Diarrhea (Any Grade, N=19): 11 [57.9%] n (%) and 11 (57.9) n (%)
pembrolizumab related TEAEs: Endocrine disorders (Any Grade, N=19): 3 (15.8) n (%)
pembrolizumab related TEAEs: Gamma-glutamyl transferase increased (Any Grade, N=19): 2 (10.5) n (%)
pembrolizumab related TEAEs: Gastrointestinal disorders (Any Grade, N=19): 11 (57.9) n (%)
pembrolizumab related TEAEs: Hyperphosphatemia (Any Grade, N=19): 3 (15.8) n (%)
pembrolizumab related TEAEs: Hypoalbuminemia (Any Grade, N=19): 3 (15.8) n (%)
pembrolizumab related TEAEs: Hypothyroidism (Any Grade, N=19): 3 (15.8) n (%)
pembrolizumab related TEAEs: Investigations (Any Grade, N=19): 14 (73.7) n (%)
pembrolizumab related TEAEs: Metabolism and nutrition disorders (Any Grade, N=19): 6 (31.6) n (%)
pembrolizumab related TEAEs: Proteinuria (Any Grade, N=19): 4 (21.1) n (%)
pembrolizumab related TEAEs: Renal and urinary disorder (Any Grade, N=19): 4 (21.1) n (%)
pembrolizumab related TEAEs: Thyroiditis (Any Grade, N=19): 2 (10.5) n (%)
TEAEs resulting in temporary interruption of pembrolizumab [1]: 1 (33.3) n (%)
Temporary interruption of pembrolizumab: Blood bilirubin increased [1]: 0 n (%)
Temporary interruption of pembrolizumab: Endocrine disorders [1]: 1 (33.3) n (%)
Temporary interruption of pembrolizumab: Investigations [1]: 0 n (%)
Temporary interruption of pembrolizumab: Thyroiditis [1]: 1 (33.3) n (%)
TEAEs resulting in temporary interruption of pembrolizumab [2]: 0 n (%)
Temporary interruption of pembrolizumab: Blood bilirubin increased [2]: 0 n (%)
Temporary interruption of pembrolizumab: Endocrine disorders [2]: 0 n (%)
Temporary interruption of pembrolizumab: Investigations [2]: 0 n (%)
Temporary interruption of pembrolizumab: Thyroiditis [2]: 0 n (%)
TEAEs resulting in temporary interruption of pembrolizumab [3]: 1 (16.7) n (%)
Temporary interruption of pembrolizumab: Blood bilirubin increased [3]: 1 (16.7) n (%)
Temporary interruption of pembrolizumab: Endocrine disorders [3]: 0 n (%)
Temporary interruption of pembrolizumab: Investigations [3]: 1 (16.7) n (%)
Temporary interruption of pembrolizumab: Thyroiditis [3]: 0 n (%)
TEAEs resulting in temporary interruption of pembrolizumab [4]: 1 (14.3) n (%)
Temporary interruption of pembrolizumab: Blood bilirubin increased [4]: 0 n (%)
Temporary interruption of pembrolizumab: Endocrine disorders [4]: 0 n (%)
Temporary interruption of pembrolizumab: Investigations [4]: 1 (14.3) n (%)
Temporary interruption of pembrolizumab: Thyroiditis [4]: 0 n (%)
pembrolizumab related TEAEs: Abdominal pain (Grade ≥3, N=19): 0 n (%)
pembrolizumab related TEAEs: Anemia (Grade ≥3, N=19): 0 n (%)
pembrolizumab related TEAEs: Aspartate aminotransferase increase (Grade ≥3, N=19): 2 (10.5) n (%)
pembrolizumab related TEAEs: Blood alkaline phosphatase increased (Grade ≥3, N=19): 0 n (%)
pembrolizumab related TEAEs: Blood and lymphatic system disorders (Grade ≥3, N=19): 0 n (%)
pembrolizumab related TEAEs: Blood bilirubin increased (Grade ≥3, N=19): 0 n (%)
pembrolizumab related TEAEs: Diarrhea (Grade ≥3, N=19): 1 (5.3) n (%)
pembrolizumab related TEAEs: Endocrine disorders (Grade ≥3, N=19): 0 n (%)
pembrolizumab related TEAEs: Gamma-glutamyl transferase increased (Grade ≥3, N=19): 0 n (%)
pembrolizumab related TEAEs: Gastrointestinal disorders (Grade ≥3, N=19): 1 (5.3) n (%)
pembrolizumab related TEAEs: Hyperphosphatemia (Grade ≥3, N=19): 0 n (%)
pembrolizumab related TEAEs: Hypoalbuminemia (Grade ≥3, N=19): 0 n (%)
pembrolizumab related TEAEs: Hypothyroidism (Grade ≥3, N=19): 0 n (%)
pembrolizumab related TEAEs: Investigations (Grade ≥3, N=19): 2 (10.5) n (%)
pembrolizumab related TEAEs: Metabolism and nutrition disorders (Grade ≥3, N=19): 0 n (%)
pembrolizumab related TEAEs: Proteinuria (Grade ≥3, N=19): 0 n (%)
pembrolizumab related TEAEs: Renal and urinary disorder (Grade ≥3, N=19): 0 n (%)
pembrolizumab related TEAEs: Thyroiditis (Grade ≥3, N=19): 0 n (%)
TEAEs resulting in temporary interruption of pembrolizumab (Total (N=19)): 3 [15.8%] n (%) and 3 (15.8) n (%)
Temporary interruption of pembrolizumab: Blood bilirubin increased (Total (N=19)): 1 (5.3%) n (%) and 1 (5.3) n (%)
Temporary interruption of pembrolizumab: Endocrine disorders (Total (N=19)): 1 (5.3) n (%)
Temporary interruption of pembrolizumab: Investigations (Total (N=19)): 2 (10.5) n (%)
Temporary interruption of pembrolizumab: Thyroiditis (Total (N=19)): 1 (5.3%) n (%) and 1 (5.3) n (%)
